{"source": "patent US10889844B2", "about": "“Methods of degrading or hydrolyzing a polysaccharide” (Novozymes A/S, priority 2010, dated 2021)", "type_in_all_cases": "biochemical", "key": {"[1]": {"assay": "Filter paper degradation by […] with CelS2 or E7 (FIG. 20), sugars by HPLC", "method": "Reactions were run in 50 mM Bis-tris/HCl pH 6.5, 1 mM MgCl2, at 50° C. and 900 rpm (horizontal agitation). Control reactions containing the cellulosic substrate suspended in the same buffer as used for the enzyme assays gave no detectable signal for either glucose or cellobiose.\n(§1) The mobile phase consisted of 5 mM sulfuric acid and the flow rate used was 1.0 ml/min. Eluted glucose and cellobiose were monitored by recording refractive index. Quantification was obtained by running glucose and cellobiose standards.\n(§2) Assays performed to evaluate the function of E7 and CelS2 were set up using a variety of cellulosic substrates (AVICEL®, filter paper and steam exploded wood chips from poplar), at either pH 5.5 (20 mM sodium acetate buffer), 6.5 (20 mM Bis-Tris buffer) or 8.0 (20 mM Tris buffer) in reaction mixtures containing 1.0 mM MgCl2."}, "[2]": {"assay": "Filter paper degradation by Cel7A with CelS2 (FIG. 21), cellobiose by HPLC", "method": "These reactions were conducted in 50 mM sodium acetate pH 5.5, 1 mM MgCl2, at 50° C., 900 rpm (horizontal incubation). Only the cellobiose concentration was quantified as the amount of glucose was minor (less than 5% of the total sugar). Control reactions containing the cellulosic substrate suspended in the same buffer as used for the enzyme assays gave no detectable signal for either glucose or cellobiose.\nas §1, §2"}, "[3]": {"assay": "Degradation of steam exploded saw dust from poplar by […] with CelS2 (FIG. 24)", "details": "1.0 μM CelS2, CELLUCLAST, 1.0 mM reduced glutathione, pH 5.5, 20 hours", "method": "as §2"}, "[4]": {"assay": "Soluble products released from AVICEL by CBM33 proteins (MALDI-TOF MS, HPAEC)", "procedure": "The main peaks are annotated with molecular weight and degree of polymerization (DP).\nThe DP of the oxidized cellooligosaccharides is indicated by n, where n=3 (the shortest labelled oxidized cellooligosaccharide has a DP of three (=n)). […] Peak annotation was performed by comparing the chromatogram with the chromatogram obtained for a chemically prepared mixture of oxidized cellooligosaccharides with lengths varying from DP1 to DP10.\nThe main peaks are annotated with molecular weight and degree of polymerization (DP). All annotated peaks are Na adducts of native cellooligosaccharides, oxidized cellooligosaccharides (denoted “ox”) or the sodium salts of oxidized cellooligosaccharides.\nProducts were analyzed after 20 hours of incubation in 20 mM ammonium acetate buffer pH 5.0, 1 mM MgCl2 at 50° C. and 900 rpm (vertical agitation).\nSeparation of native and oxidized cellooligosaccharides was achieved using a Dionex Bio-LC equipped with a CarboPack PA1, a column temperature of 30° C. and a flow of 0.25 ml/min, with starting conditions, i.e., 0.1 M NaOH. A stepwise linear gradient with increasing amounts of sodium acetate was applied, going from 0.1 M NaOH and 0.1 M sodium acetate in 10 minutes, then to 0.1 M NaOH and 0.3 M sodium acetate for 25 minutes then increasing to 0.1 M NaOH and 1.0 M sodium acetate at 30 minutes which was kept for 10 minutes. Column reconditioning was achieved by a one minute gradient to initial conditions and subsequent running at initial conditions for 14 minutes. Eluted oligosaccharides were monitored by PAD detection. Chromatograms were recorded and analysed using Chromeleon 7.0 Peak identification was achieved by a procedure including the following steps: oxidized cellooligosaccharides were separated using a Dionex Ultimate 3000 UHPLC system carrying a Hypercarb 150×2.1 mm column (Thermo Scientific) running a gradient of water/0.1% TFA and acetonitrile/0.1% TFA (from 20 to 80% acetonitrile) according to the method developed by Westphal et al., 2010, Journal of Chromatography A 1217: 689-695. Eluted peaks were manually fractioned, freeze-dried, re-dissolved in MilliQ water and identified using MALDI-TOF MS. Pure oxidized cellooligosaccharides with known identity were then analyzed using the HPEAC method described above in order to establish the identity of the oxidized cellooligosaccharides generated by CelS2 and E7."}, "[5]": {"assay": "Soluble oxidized products from other cellulosic variants by CelS2 (MALDI-TOF MS)", "details": "results not shown", "description": "Finally, other cellulosic variants (filter paper and steam exploded sawdust from poplar) were also probed as substrates for CelS2. […] This is most likely due to the high DP of the cellulose in these substrates; cleavages on the crystalline surfaces will not easily lead to release of soluble (=short) cellooligosaccharides when the overall DP is very high. AVICEL® is special in that it is a form of microcrystalline cellulose that has a very low DP (˜60-100; Wallis et al., 1992, Carbohydrate Polymers 17: 103-110 and Mormann and U, 2002, Carbohydrate Polymers 50: 349-353) compared to that of the other substrates tested."}, "[6]": {"assay": "Time course of filter paper cellulose degradation by […] with CelS2 (FIG. 25)", "method": "In reactions where no CelS2 was present, 40 μg/ml purified BSA was added in order to maintain an identical protein load. […] Data are mean+/−SD (N=3); error bars indicate SD."}, "[7]": {"assay": "Filter paper degradation by HjCel7A with CelS2 over time (FIG. 26)", "details": "40 μg/ml CelS2, 5 μg/ml HjCel7A, pH 5.5, 50° C.", "method": "By far the major products of these reactions are cellooligosaccharides released by the cellulases (whose activity is boosted by CelS2). In the case of HjCel7A, the main product is cellobiose and formation of this product is shown. RG, indicates the presence of a reductant, in this case reduced glutathione. […] The reactions were run at 50° C."}, "[8]": {"assay": "Cellulase boosting properties of CelS2 at various pHs with monocomponent Cel7A", "details": "CelS2 with Cel7A; data not shown", "description": "When probing the cellulose boosting properties of CelS2 at various pHs using monocomponent Cel7A as the cellulose hydrolytic component, pH 5.5 came out as the optimal pH for activity. […] The most obvious reason for the decrease in cellulose hydrolysis at increasing pH is the pH stability and efficiency of Cel7A. […] CelS2 is a bacterial enzyme that originates from Streptomyces species that are known to grow optimally on cellulosic substrates in approximately neutral pH conditions (Kontro et al., 2005, Letters in Applied Microbiology 41: 32-38.)."}}, "note": "Entries after “also recorded” stand apart in the source; their conditions may differ."}
{"molecule": "CelS2: multidomain CBM33 with C-terminal CBM2 from Streptomyces coelicolor A3(2) (SEQ ID NO: 7) (protein, Streptomyces coelicolor) MVRRTRLLTLAAVLATLLGSLGVTLLLGQGRAEAHGVAMMPGSRTYLCQLDAKTGTGALDPTNPACQAALDQSGATALYNWFAVLDSNAGGRGAGYVPDGTLCSAGDRSPYDFSAYNAARSDWPRTHLTSGATIPVEYSNWAAHPGDFRVYLTKPGWSPTSELGWDDLELIQTVTNPPQQGSPGTDGGHYYWDLALPSGRSGDALIFMQWVRSDSQENFFSCSDVVFDGGNGEVTGIRGSGSTPDPDPTPTPTDPTTPPTHTGSCMAVYSVENSWSGGFQGSVEVMNHGTEPLNGWAVQWQPGGGTTLGGVWNGSLTSGSDGTVTVRNVDHNRVVPPDGSVTFGFTATSTGNDFPVDSIGCVAP", "values": [{"measurement": "increase of glucose yield versus CELLUCLAST only", "setting": "[1]; no external electron donor, 24 hours", "result": "~3.0", "unit": "fold"}, {"measurement": "increase of glucose yield versus CELLUCLAST only", "setting": "[1]; no external electron donor, 120 hours", "result": "~9", "unit": "fold"}, {"measurement": "increase of glucose yield versus CELLUCLAST only", "setting": "[1]; with external electron donor (1 mM reduced glutathione), 24 hours", "result": "~5", "unit": "fold"}, {"measurement": "increase of glucose yield versus CELLUCLAST only", "setting": "[1]; with external electron donor (1 mM reduced glutathione), 120 hours", "result": "~11", "unit": "fold"}, {"measurement": "improvement of Cel7A activity (cellobiose yield)", "setting": "[2]; absence of external electron donor, 18 hours", "result": 5.5, "unit": "fold"}, {"measurement": "improvement of Cel7A activity (cellobiose yield)", "setting": "[2]; absence of external electron donor, 40 hours", "result": 7.3, "unit": "fold"}, {"measurement": "improvement of Cel7A activity (cellobiose yield)", "setting": "[2]; presence of external electron donor, 18 hours", "result": 6.7, "unit": "fold"}, {"measurement": "improvement of Cel7A activity (cellobiose yield)", "setting": "[2]; presence of external electron donor, 40 hours", "result": 9.8, "unit": "fold"}, {"measurement": "cellulase boosting effect (cellobiose release)", "setting": "[3]", "result": "~2", "unit": "fold"}, {"measurement": "CelS2 activity at pH 8.0", "setting": "[4]; AVICEL, FIG. 19", "result": "active"}, {"measurement": "release of soluble native/oxidized cellooligosaccharides from AVICEL", "setting": "[4]; with external electron donor (ascorbic acid or reduced glutathione)", "result": "soluble oligomeric products were observed"}, {"measurement": "soluble oxidized cellooligosaccharides", "setting": "[5]", "result": "Soluble oxidized cellooligosaccharides were not observed"}, {"measurement": "effect on CELLUCLAST (CC) production of soluble glucose over time", "setting": "[6]; 10 mg/ml filter paper, 0.8 μg/ml CC, pH 5.5", "result": "production of soluble glucose continues"}, {"measurement": "Glc or Glc2 released without cellulase", "setting": "[6]; reactions with only CelS2", "result": "did not yield detectable amounts of Glc or Glc2"}, {"measurement": "effect on Cel7A activity (cellobiose formation)", "setting": "[7]", "result": "boosts the activity of the cellulase, Cel7A; also recorded: prolongs the activity of Cel7A"}, {"measurement": "activity at pH 6.5", "setting": "[8]", "result": "Less activity"}, {"measurement": "activity at pH 8.0", "setting": "[8]", "result": "no activity could be detected"}, {"measurement": "optimal pH for activity", "setting": "[8]", "result": 5.5}]}
